In the assay the target is P22 coat protein (CP) monomers (bacteriophage P22, UniProt P26747 1-430). Description: SEC. For orientation: Size exclusion chromatography separates by hydrodynamic size, large species first.

The text below walks through data of publication PMC5529062 (Science Advances, 2017).

Chain of P22 coat protein (CP) monomers (P26747 whole entry): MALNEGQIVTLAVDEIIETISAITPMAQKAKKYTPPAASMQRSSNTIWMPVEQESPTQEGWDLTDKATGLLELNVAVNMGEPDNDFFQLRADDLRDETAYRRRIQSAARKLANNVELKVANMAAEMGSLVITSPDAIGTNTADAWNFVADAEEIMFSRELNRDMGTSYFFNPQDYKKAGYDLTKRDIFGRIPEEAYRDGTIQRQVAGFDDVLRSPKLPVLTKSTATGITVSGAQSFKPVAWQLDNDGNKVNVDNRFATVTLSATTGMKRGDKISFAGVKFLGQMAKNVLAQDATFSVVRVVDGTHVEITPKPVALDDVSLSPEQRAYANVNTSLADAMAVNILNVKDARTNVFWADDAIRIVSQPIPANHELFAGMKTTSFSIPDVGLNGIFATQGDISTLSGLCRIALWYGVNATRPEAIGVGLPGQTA

B1: P22 scaffolding protein (SP) (natural protein, bacteriophage P22, UniProt P26748 1-303, looked up)
chain: MEPTTEIQATEDLTLSGDHAAASADSLVVDNANDNAGQEEGFEIVLKDDETAPKQDPAKNAEFARRRIERKRQRELEQQMEAVKRGELPESLRVNPDLPPQPDINAYLSEEGLAKYDYDNSRALAAFNAANTEWLMKAQDARSNAVAEQGRKTQEFTQQSAQYVEAARKHYDAAEKLNIPDYQEKEDAFMQLVPPAVGADIMRLFPEKSAALMYHLGANPEKARQLLAMDGQSALIELTRLSERLTLKPRGKQISSAPPADQPITGDVSAANKDAIRKQMDAAASKGDVETYRKLKAKLKGIR
Turning to B1, the binding result is listed as “binds”.
